In patent publication US20140037708A1, “COMPOSITION FOR SPATIO AND/OR TEMPORAL RELEASE OF BIOACTIVE MATERIAL” (The Regents of the University of Colorado, a body corporate, priority 2012, published 2014):

Assay: Double-sided release test of fluorescent molecules from electrospun scaffolds in custom-made diffusion chambers
Format: physicochemical
Description: For molecule release characterizations, the circular samples with 24 mm in diameter were cut from PCL-PLGAac and PCL-PLGAes scaffolds loaded with fluorescent dye or fluorescently-labeled albumin. For each experimental condition, 3 samples were used for analyses. Scaffold samples were placed in a custom-made diffusion-test system in which a sample was sandwiched between two reservoir chambers. Each side of the electrospun scaffolds thus faced a different reservoir filled with 1 ml of buffer solution. The reservoirs used SecureSeal hybridization chambers (Grace Biolabs, Bend, Oreg.) which tightly sealed the surface. Each reservoir had small holes for sampling and changing solutions. The holes were covered with silicone sealing tap during experiments to prevent evaporation. Thus, the molecule movements between the reservoirs could only be through the pores of the electrospun materials. The release tests were performed at 37° C. Samples of buffer solutions in both reservoirs were collected every day during the first 16 days, and subsequently once a week for scaffolds loaded with fluorescent albumins. A shorter release experiment was performed in case of electrospun scaffolds loaded with Rh123. After samples were taken, the reservoir chambers were rapidly rinsed with DI water and refilled with fresh phosphate buffer at 37° C. […] The geometry and porosity of the molecule-releasing scaffolds kept constant for all the experimental samples. For the designs with multiple molecules, as various fluorophores could be simultaneously released by the samples, the possibility of the overlap of the fluorophore emission spectra was examined; we could find no overlaps in the interested spectrum ranges. […] For each type of molecule, the efficiency of separation between Side A and Side B, Smolecule—A-B, was defined as the percentage of the molecule released on Side A over the total amount of the molecule released on Sides A and B during the entire experimental duration.
To assess the potential use of PCL-PLGAac and PCL-PLGAes materials for spatially controlled release of active molecules, release experiments were performed using Rh123. PCL and PLGA/Rh123 solutions were electrospun to prepare scaffolds following the pattern described in FIG. 1. Release studies were carried out in custom-made diffusion chambers illustrated in FIG. 7a. The two sealed reservoirs filled with phosphate buffer solution were placed on the opposite sides of the electrospun scaffolds. The PCL side of the scaffold was set to face the buffer reservoir chamber on Side “A”; the Rh123-impregnated PLGA side was placed in contact with the buffer reservoir on Side “B”. […] The separation efficiency of Rh123 between the two surfaces (SRh123—B-A) of the PCL-PLGAac scaffolds was 82±5% during the 9-day release experiment. […] In addition, after day 3, the molecule concentration measured on the PCL side exceeded that on the PLGAes side.

## fluorescein isothiocyanate conjugate bovine serum albumin [AlbF]
PCL-PLGAac composite scaffold, AlbF in inner PLGAac fibers, AlbT in outer PLGAac fibers (FIG. 10a)
  separation efficiency (release of two proteins to one side): 87±5%
PCL/PLGA scaffold with dual PLGA gradient patterns: AlbF-loaded PLGA in the middle, AlbT-loaded PLGA close to side B (FIG. 11a)
  separation efficiency between side B and side A (sequential release scaffold): 0.92±0.03
PLGAac-PCL-PLGAac composite scaffold, release to opposite sides (FIG. 12)
  separation efficiency of AlbF between Side A and Side B (SAlbF A-B): 91±4%
dual-protein PCL-PLGAac scaffold, first 10 days, cumulative release normalized to total delivered protein
  initial release rate on Side B compared to AlbT: slower rate
Sequential release scaffold (FIG. 11), first 12 days
  day on which daily net release to side B peaked: 5 days
